From the domain aggregation screens of Martell et al. (2025)

assay: soluble fraction after stress (log2 fold change); higher = more stays soluble; pooled small domains, quantitative proteomics; conditions: stress: 75 degC
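Also: 20 min heating vs room temperature control held 20 min.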

Sequence | soluble fraction (log2)
HMPVYEEEVPAALDGQRLDRVVAMVTGLSRSEVGALLAAGAVTVDGTTPAKGSVRLAAGSIVSVTVS | -0.357
HMQAATGVVTASVLNIRQGPGTNYTKVGSLLKGAQVEIVGQNGAWSKIRLKSGITGWVNSSYLKTST | -1.84
HMQAGPEDIIRAKLKTAMPEAQIISIRPTPAGLYQVNAKGYESVFVTADGRYLFQGDLLEIQGDRIVNL | -0.186
HMQAKNGTVTGSVVNVRGGAGTQYAVKGKASRGTKVTILGQQSSWLNVRLDNGVTGWIHADYVQISE | 0.592
HMQAPHLALSPREFQVLQGLLAGDALDIIAERLHLSAKTVSNHQTLIRQKLGVGNAVELLRYAQLHRL | -2.49
HMQAPIFMNETDGKWYFREKYLNDNHEIAYRVHPEGYDQMEDALRNSVNALNEFAAEMKELRKQV | -0.0803
HMQAPVVNHDLIKSFERQWREIKATAKGKVRSVNLSDARSILQSFLNTLQKGPGTDSLISSVQNELSLIA | -0.17
HMQARDQNVDEGKALLEKEFSRLALENLDRDKLANAVNYPTRDDMYAAIGAGDLRVGQVLHQAQQLF | 0.226
HMQASTGNVNTETLNLRKEASTSADILKLLSQGDEVEIVSESNGWYKVKYKDTEGFVSKEYITVN | 1.02
HMQATETFSLIVPMSSAGNRLDVVLSELLPNFSRKKIQDAIKNGDATLNGKAPKIRDKVYGGENITITLIL | -2.55
HMQAVDPLELRAGDFVVHEQHGIGRYVEMVQRTIGGITREYLVIEYAPAKRGQPNDRVFVPTDTLEQVS | -0.654
HMQAVKQIKVERGMTLEKIAQSEFGDSTRWGEIVEVNNLRAPYISDDPTETRDGVLKPGSNLLIPIP | -0.0397
HMQDEAQLSMSNKYIFEGNSIVKDNFIEAEKKYRLGVSAKPNNAVGSYNLANAYYNSKLYDEAMLRLL | 0.379
HMQDEREEIAVEDVVGMPLWQARKVIADQGFRVLDDGAGDIVIAQMPSGGGKLIEGGQVMLYTYTD | 0.687
HMQDFEEILKNAKIEDFKHTQTGEDLKVLKIEDKIEDFKGFNAYLVKNQIAYYSKFARGFVVKNIEKLQGV | 0.202
HMQDFEQNLFDGKSIYDRMLSKFSLHNVDVKQLVAHFKRKDTEQFFADIGRGLITSAQMLGFLQT | -0.0166
HMQDLVAVPALTGLTENDAINKAKANNLIAVVSEYKTENSVEPGKVLEQDPESSTEVKKGTIIKLVVS | 0.756
HMQDQVTLIVQVNGKLRGQISISTDATKELIEQTALANENVQKFVDGQSIKKIIIVPGRLVNIV | -0.939
HMQDRDKNVPAGKELLDNEIARLNMSLKQVEQFALPRYNLKTLEDLYSGIGSGDIRLNHLINFLQSKLI | 0.338
HMQDREIHIHAGREVLEKELSRLSLHLKNTNLQEYAARFNVKTAEDILAGIGAGDIRPAHVVNLIADKL | -0.0928
HMQDSSGENNPQSKLTQQQVDLLMKDLKETNVEFDKLAEKYNVSIKTIRNVNTGIAWRKNDITYPIREP | -0.407
HMQDTQAEEGETLLDALRRIHPESSTGTLRRMLTQGRVQLDGDSVHAAKTVLSAGQRVEVVAR | -0.143
HMQDTTLTSQILRVPSSVNINDLANVLKSLAGKNTVVAPYKAANTIIITGYAPNVRRVLSLANELIPRLDV | -1.18
HMQEAGLITQRIREMREKENWTQEYMAEQLGMSENGYAKIERGESNLSLKRLQQIADIFEVESAELLK | 0.00448
HMQEDKSKYLFQRGTAITVLRPAGIVRIGKERVDAVSNGSYIDRGVAVRVIEVEGTRVVVEPVPE | 0.0187
HMQEEMIRGDIKLNTVMQTVHLAVGTETERNWQPVETTAKEFELLKLLMENPGVTLKKEYLFHMLI | -0.101

Sequence | soluble fraction (log2)
HMQEESISWKEFLELDIIGDKKKRLKVYDLFHLGYGNAKTLFKRLNMVGISREMIEKELENEGY | -1.39
HMQEKIREVANRIRELRESLEVSPEEMADHLKVTIGTYIEYERGEADIPASVLFGIAHRLNVDMAVLL | -1.36
HMQEKLELIIPVSSIGKRADVAIQDLLSSYSRAKIQEWIKSGFILLESKKISPKDIFMGGERVFIDIQQDE | -1.86
HMQELVPGKVFEGTVTEMKNGQVTLGLSDGKTISARMEQGVSLAKGQPMLFEVKSNTGEQIAIRPVVL | 0.263
HMQENKVLEGKVLEKKKKKVFVDLSPFGVGVIRGVNYLEAKNELKDIEEGDNIKVRVLEIDNENGFIELAL | -0.121
HMQERQREGFVQQLRGKYSGQVVMRLFPELQGKALGEFMRKFEAQWEDHEAVLAAMEAHEIESRLKVFK | -1.57
HMQETALANFETNEGVQKVKQYVQENVPSLRGSNIVGVWTSYTPEGLTNYRTRFLTQDGQFVEVNLAYQ | -0.203
HMQETIDVAALRVGMFVHLDLGWLAHPFPLSSFRISSEDQISTIRALGLKRVRWSSQHSELG | -1.29
HMQETKDEGAQVLLNKINALVAAVQGQIITPEEAAIKLATDGDLDLDVDARVAAIEEFNKKLSEAQNN | 0.101
HMQEVILEKIQLTYLSADKLSKMAEQFSIPVKMYWVDENPMMLMVMGNESDIATFKKVLTQIDIPENKS | -0.268
HMQFHQDNYALEFIRDLQPVDGAIILSRFKQFDLVELEKAKKIKFSDEHMAWTLYDYDIKKIN | -1.95
HMQFLKPQDVLFLLKLVVLKGPASIFPAVPESLGLSKAEVHNSAKRVRGARLLPHDSWNPLRKNLLEFL | -0.488
HMQFQVHEIKGKEYYIHVVEKGNTLYAISRMYSVPIETLKEENPRLNTTELTIGDRLLIPLDEVKRKNIE | -0.833
HMQFYSGLEARLMDPNTPEVFDDPISLMAFLQQKNISRVELEDNLLLPYLKEMAGQPIPKAELLEIIRK | -0.815
HMQGDHELSQRILSYLSEQGGSSPLTDKASPEEIYRIFRVSKKKYKQALGNLYKSKSIIILADKIQLL | -3.2
HMQGEDEILKIHEALEELAQIDARLVRVVEMRYFVGLSNQEIADSLGVTTRTVERDWEKARTFLFNALHP | -1.86
HMQGISGIERSLLDALAFEPAGLDALQARTGLDTPTLQALLMGLELQGHVARLPGSLFQRLVR | -0.9
HMQGVTVPDLTRVSLEEAVATISSLGLRYEISDRRSNAAFPANYVLDQAPGANTIVKPNRKVYLTVNAA | -0.162
HMQGWREWDYSADLYINARVGGKIEPTENSPISRVYELDEPVSVVAFTSTRYFKLSSGDYIFAEYLSAQKV | -4.29
HMQGYELKMYVTPDTKYSVAVYDAKNEMVSYTMGFSAKAPFGQEGEVLETVKLEFDKLAVGNYELKYWI | 0.258
HMQHYQFEVDEASSKKRLDVFLSENLPEISRSRLKKLIDEKRVTVNEMSRPAGYKVRVKEKIEFHIPPL | -0.718
HMQIAEAESLGQRLLQQSINNIVGRDEAITEERLNRVLSQYSLTGRDELMAQIGLGNRNSSLVAKAMYDI | -0.0772
HMQIKEVDYGTFISMTEDGEIGRVEIQQQENTILFTDEDETAVYKTAMVEDDQLTQRLYDAGISFYGEE | 0.0917
HMQILVEGVEANQRLDLFLRARLTEFSRSRIQGLVKNGNVLVNGNIARQAYLVQVGDKIELDVPEPVA | -0.603
HMQIMVVDEADRMLDMGFIPDIERIFQLTPFTRQTLFFSATMAPEIERITDTFLHSPERIEVAR | -0.255
HMQISDDGFILKIINEVVAENPKSISDYISGKEAAVGFLVGQIMKKTRGKANPKLVNEMLITELAKLKN | 0.0585

Sequence | soluble fraction (log2)
HMQISDESSIAKIADEVISEFPSQVSEFRSGKEKVLQFLIGQVMKKTKGKANPQITAKILREKLS | 0.00566
HMQISDSASVKTVVAEAIAANPKAVADFMNGKDTATRYLVGQVMKITKGQAKPELVNQLVLESLAELKEK | 0.361
HMQISDSGELEKIVLQVIEENPKPAEQVRSGNEKAIGALVGGVMKATQGRADGGEVNRLLRQHLGL | 0.248
HMQISDVSLIAKVIDDVIDNNVKSVSDYLEGNLNVLRFLVGQVMKETKGKANPQKATELLQEKLESLNN | -0.896
HMQISLDTKLINLEFSVRANNVFRENQIFTLRDLTSHSKEDLMLMTNFGKTTLYEVNKKLEEHQLKLSQ | -2.43
HMQISNEEELEKIIENVIESNPEKVKAYQSGKSGLIGFFMGQVMKESGGQANPNLVNQILKGKL | 0.109
HMQIYSQEIYDAQKVLKELGLYTSDLDGLNGPGTKRALRNFQSKSGLNADGVLGPLTKSALDKGEESYITV | -0.0827
HMQKADFDYGDYVDLGLAMGRQSRQLREAVGIKLGIGYANSKRFYQRLQTFGISLAELKQAVEEAENDQQN | -1.12
HMQKEMDIVLQINGKMRSNLKVSSTANDDEIIKTAIESDAYKKFSLGLRIQKTIIVPNRLINIVLEK | -3.24
HMQKIYTIARGDTLSHIVAGTLKQQGIAYTTGELYRLVNVVAQYNDILNPNRIYTGHQLDLTPLYSED | -0.15
HMQKLLGPFEDFVKIKLDKYPDTKAAQMHDWLKEHYPDFPEVTPKTVYNFVMYVRQRHNIPIPD | -0.359
HMQKTVLAASVYERMKERIMDQYYPPGERLNIDALAIDLAVSPTPIREALARLAAERLITFEAYKGYRVSP | -3.38
HMQLEPLVTSVIPVNFAKASDISGTIKGKEVGLLSERGNITAENRTNVLIVKDIRKSVDEINAMVKRLD | 0.0272
HMQLFKFKNAMMELAKNKNITLDTAEKAIGLEAGFTELVARGVKELALSDVIKISKYFNTTMDSVLD | -1.44
HMQLPFTPREHEITQLLSRGLSNRQIAEALSLSVRTVEGHIYQASTKLGISSRSELAVLVGQFA | -1.94
HMQLSQLLQPFDINAFKGHPLYTEENVKMFNDYTNRVKEWTKGTPYEQYWVTKEGQPTMLAWDSFKK | -1.28
HMQLTQEAIENLFKITTAKKFREELEKLVVTDSEKKAFAYFTVYHPKLKELPFAILKSVENYTGISI | -0.963
HMQLVPGIGRLSARELEVFTLIGRGLGTSEIGKKLGVSAYTVQTHRNHIKEKLNLPNAAAITYWAIQWAHG | -2.27
HMQMEDTDALLQVAKEVVAENQDTVEAYLGGREKAFASLIGAAMKKTRGKANPKVIRQLILDLIQ | 0.564
HMQMEISQRIKLERQTLKWTQEELADKIFVSKRTISNWETGRTVPDIESVLRLAKVFHVSLEDLLL | -4.46
HMQMEYEKAIAYILDKIKSGELSIGSKLPAERVIADTLHIGRNSTREALSILHGMGMVDRVHGSGNYISEH | -0.752
HMQMLQDPFLNALRKEHVPVSIYLVNGIKLQGQVESFDQYVVLLRNTSVTQMVYKHAISTIVPARAVSL | -0.748
HMQMRKENKILVTDIGEIDEVKVIFDDDNKPYLYSYNGEDEFYRPDETYKFFDNKEQAEEYVREN | 0.0692
HMQMSPREKMIYSFIESHPGTKSGEIAEKLNVPLPTVKRILSEMVSGNFIAKHGSGIGTNYSTEK | 0.335
